Series [1] concerns NC(=O)c1ccc[n+]([C@@H]2O[C@H](COP(=O)([O-])OP(=O)(O)OC[C@H]3O[C@@H](n4cnc5c(N)ncnc54)[C@H](O)[C@@H]3O)[C@@H](O)[C@H]2O)c1. Kind of series: purified protein. The note with it: varied: cofactor.
Series [2] deals with C[C@H](O)C(=O)O. Kind of series: purified protein. The following applies: NAD+. The format is biochemical, Babesia microti.

A word on the Km: it is the substrate concentration at which the rate is half of its maximum.

Regarding “Babesia microti lactate dehydrogenase (BmLDH) (Babesia microti strain RI)”, the Km was found to be 8.76 ± 0.57 mM in series [1] and 99.96 ± 22.33 mM in series [2].

For the origin of these results see article PMC4125376.
